This passage reports dFRET results from paper PMC5365143.

For this assay, the target named is EGFP-HDQ74 (mutant huntingtin exon 1 with 74 glutamine residues). Put plainly: FRET or BRET.

B1: AavLEA1-mCherry (natural protein)
chain: MSSQQNQNRQGEQQEQGYMEAAKEKVVNAWESTKETLSSTAQAAAEKTAEFRDSAGETIRDLTGQAQEKGQEFKERAGEKAEETKQRAGEKMDETKQRAGEMRENAGQKMEEYKQQGKGKAEELRDTAAEKLHQAGEKVKGRD
With B1, the dFRET stood at 3%.
